Laboratory results taken from US20260078398A1, “PLANTS GENETICALLY ENGINEERED FOR INCREASED WATER USE EFFICIENCY AND CARBON INTAKE AND METHODS FOR MAKING AND USING THEM” (The Regents of the University of California, priority 2022, published 2026).
Residue numbers refer to the chain shown, from its start. In names and notes the source's numbering stands.

Legend:
[1] = target: T1, His-HT1 (recombinant Arabidopsis HT1 protein kinase, wild type, with His tag)
T1 chain: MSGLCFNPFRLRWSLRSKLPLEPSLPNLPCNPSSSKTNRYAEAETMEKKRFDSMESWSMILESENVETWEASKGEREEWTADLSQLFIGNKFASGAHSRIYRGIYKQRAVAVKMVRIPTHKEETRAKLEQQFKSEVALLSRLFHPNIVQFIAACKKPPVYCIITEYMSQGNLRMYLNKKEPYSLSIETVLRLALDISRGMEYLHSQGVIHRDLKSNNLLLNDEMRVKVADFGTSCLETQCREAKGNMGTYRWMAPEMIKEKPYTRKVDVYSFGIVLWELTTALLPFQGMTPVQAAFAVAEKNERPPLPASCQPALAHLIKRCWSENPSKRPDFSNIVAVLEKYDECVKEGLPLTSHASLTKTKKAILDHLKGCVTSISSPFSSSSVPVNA

CBC1 = test: HT1-dependent CBC1 kinase activation, in vitro phosphorylation and in-gel kinase assays; assay type: biochemical, Arabidopsis; conditions: kinase inactive isoforms, histone as substrate
Text: A previous study reported that the HT1 kinase phosphorylates the CBC1 kinase in vitro (13). Whether this phosphorylation of CBC1 affects CBC1 activity remains unknown. We confirmed CBC1 phosphorylation by HT1 using recombinant His-HT1 and GST-CBC1 proteins by in vitro phosphorylation assays using radioactive ^32P-ATP (FIG. 5). Moreover, phosphorylation levels of histone, an artificial kinase substrate, were increased at the same time. […] In-gel kinase assays were pursued to test this hypothesis and provide direct evidence of HT1-dependent CBC1 kinase activation (FIG. 1A). […] We identified in vitro phosphorylation sites in CBC1 using mass spectrometry by analyzing recombinant CBC1 protein in the presence or absence of HT1 (FIG. 1C). We found two HT1-dependent phosphorylation sites (Thr-256 and Ser-280) that lie within or near the activation-loop of CBC1.
FIG. 1. […] Histone was used as an artificial phosphorylation substrate of CBC1. • (C) Recombinant CBC1 proteins were incubated with or without HT1 and ATP, and CBC1 phosphorylation sites were identified by mass spectrometry. The red fonts indicate HT1-dependent phosphorylation sites. CBC1 autophosphorylation sites detected without HT1 addition are labeled in black fonts. […] CBB gels show loading controls.

[2] = tested on: MPK4/12, HT1 and CBC1 recombinant proteins; test: in vitro phosphorylation assay: NaHCO3-dependent down-regulation of HT1-mediated CBC1 phosphorylation; assay type: biochemical, Arabidopsis; conditions: isoform replaces wild type protein or is added; 20 mM NaHCO3 vs NaCl control, 30 min
Experimental: We tested whether this HT1-mediated activation of CBC1 is inhibited by CO2/bicarbonate by adding NaHCO3 in in vitro phosphorylation reactions. […]
FIG. 2. […] Histone was used as an artificial protein kinase substrate. • (B) MPK4, HT1 and CBC1 proteins were incubated with NaHCO3 at the indicated concentrations for 30 min, and in vitro phosphorylation assays were performed. • (C) CBC1 band intensities as shown in (B) were measured using IMAGEJ™, n=4 experiments, error bars show ±S.D. • (D) MPK4, HT1 and CBC1 proteins were incubated in reaction buffers adjusted at different pH (6.5 to 8.5) for 30 min, and in vitro phosphorylation assays were performed. • (E) CBC1 band intensities and the density-ratios of ‘+NaHCO3’ to ‘—NaHCO3’ (=+NaCl controls) for each pH condition
FIG. 3. […] Ambient CO2 concentrations are indicated by the top bars. n=7 experiments, error bars show ±SEM. • (C) Recombinant HT1 (wild type, HT1-G89R or HT1-R173Q) and CBC1 proteins were incubated with MPK4 in the presence or absence of 20 mM NaHCO3 or 20 mM NaCl (−controls) for 30 min, and in vitro phosphorylation assays were performed. • (D) Recombinant MPK12, CBC1 and HT1 (WT or R102K) proteins were incubated with or without 20 mM NaHCO3 or 20 mM NaCl (−controls) for 30 min, and in vitro phosphorylation assays were performed. Histone was used as an artificial kinase substrate. • (E) HT1 (WT or A109V) proteins were used for in vitro phosphorylation assays. Proteins were incubated with or without 20 mM NaHCO3 or 20 mM NaCl (−controls) for 30 min. • (F) Stomatal conductances were analyzed using intact plants of Arabidopsis (Col-0 (WT), cbc1 cbc2, ht1-A109V and cbc1 cbc2 ht1-A109V). CO2 concentration changes were applied as indicated on top (p.p.m.). […]

MPK4 and HT1 = test: in vitro pull-down assay, His-HT1 with GST-MPK4; assay type: binding, Arabidopsis; conditions: pull-down with or without 20 mM NaHCO3
Experimental: We therefore investigated a possible binding between MPK4 and HT1 and the effect of HCO3^−.
FIG. 4. […] CO2 concentration changes were applied as indicated on top (p.p.m.). n=6 experiments, error bars show ±SEM. • (J) Model of plant stomatal CO2 sensor and signaling (see text).
FIG. 6. […] Precipitated proteins were washed with buffers supplemented with NaHCO3 at the indicated concentrations (0, 2 or 20 mM). See FIG. 4d for an independent experiment. To control for effects of Na^+, 20 mM NaCl (0 mM NaHCO3) for lanes 1 and 4 were included in the buffers; and 18 mM NaCl (2 mM NaHCO3) for lane 3 were included in buffer.

B1: His-BdMPK5 (D90N), chill1 variant isoform (protein)
chain: MRMEGGGAGPAAAAAAGGAHGLGEAQIKGTLTHGGRYVQYNVYGNLFEVSAKYVPPIRPVGRGACGIICAAINVQTREEVAIKKIGNAFNNQIDAKRTLREVKLLRHMNHENVISIKDIIRPPRRENFNDVYIVYELMDTDLHHLLRSNQPLTDDHCQYFLYQVLRGLKYVHSANVLHRDLRPSNLLLNAKCDLKIGDFGLARTTTETDFMMEYVVTRWYRAPELLLNCSEYTGAIDMWSVGCILGEIATREPLFPGKDYVHQLRLITELLGSPDDTSLGFLRSDNARRYVRSLPQYPKQQFRSRFPNMSSGAMDLLERMLVFDPNKRITVDEALCHPYLASLHEINDEPVCPAPFSFDFEQPSFTEEDIKELIWRESVKFNPEPIH
CBC1 phosphorylation, in vitro phosphorylation assay with GST-CBC1, His-HT1 and His-BdMPK5 (D90N), with or without 20 mM NaHCO3 (n=2) [1]: The BdMPK5-D90N variant protein abrogated the high CO2/bicarbonate-mediated downregulation of CBC1 phosphorylation

B2: His-BdMPK5 (WT), recombinant Brachypodium distachyon BdMPK5 (protein)
chain: B1 chain with N90D
CBC1 protein kinase activity, in vitro phosphorylation assay with GST-CBC1, His-HT1 and His-BdMPK5, with or without 20 mM NaHCO3 (n=2) [1]: HT1 and CBC1 together with the BdMPK5 protein showed a high CO2/bicarbonate-induced down-regulation of the CBC1 protein kinase activity

B3: CBC1-D253A: kinase inactive CBC1 isoform (protein, UniProt Q9SSA4 1-411, looked up, variant D253A)
Serine/threonine-protein …: MKEKAESGGGVGYVRADQIDLKSLDEQLQRHLSKAWTMEKRKSLSDGEDNVNNTRHNQNNFGHRQLVFQRPLLGGGYSNNNNSSKNDIIRSTEVEKSRREWEIDPSKLIIKSVIARGTFGTVHRGIYDGQDVAVKLLDWGEEGHRSDAEIASLRAAFTQEVAVWHKLDHPNVTKFIGAAMGTSEMSIQTENGQMGMPSNVCCVVVEYCPGGALKSFLIKTRRRKLAFKVVIQLSLDLARGLSYLHSQKIVHRAVKTENMLLDKSRTLKIADFGVARLEASNPNDMTGETGTLGYMAPEVLNGSPYNRKCDVYSFGICLWEIYCCDMPYPDLSFSEVTSAVVRQNLRPEIPRCCPSSLANVMKRCWDANPEKRPEMEEVVAMLEAIDTSKGGGMIPPDQQQGCFCFRRHRGP
HT1-dependent activation/phosphorylation of CBC1 (CBC1): reduced phosphorylation level compared to wild type CBC1

B4: HT1-K113W: kinase inactive HT1 mutant (protein)
chain: T1 chain with K113W
HT1-dependent activation/phosphorylation of CBC1 (CBC1): did not activate CBC1

B5: HT1-G89R: recombinant HT1 protein kinase isoform with dominant G89R mutation (protein)
chain: T1 chain with G89R
NaHCO3-mediated down-regulation of CBC1 phosphorylation/activity with the protein isoform in the reaction [2]: no NaHCO3-mediated inhibition of CBC1 activity | HCO3- dependent binding of HT1 isoform with MPK4 (MPK4 and HT1): disrupts the HCO3^−-dependent binding with MPK4

B6: MPK12 (recombinant Arabidopsis MAP kinase MPK12) (protein)
chain: MSGESSSGSTEHCIKVVPTHGGRYVQYNVYGQLFEVSRKYVPPIRPIGRGACGIVCAAVNSVTGEKVAIKKIGNAFDNIIDAKRTLREIKLLRHMDHENVITIKDIVRPPQRDIFNDVYIVYELMDTDLQRILRSNQTLTSDQCRFLVYQLLRGLKYVHSANILHRDLRPSNVLLNSKNELKIGDFGLARTTSDTDFMTEYVVTRWYRAPELLLNCSEYTAAIDIWSVGCILGEIMTGQPLFPGKDYVHQLRLITELVGSPDNSSLGFLRSDNARRYVRQLPRYPKQQFAARFPKMPTTAIDLLERMLVFDPNRRISVDEALGHAYLSPHHDVAKEPVCSTPFSFDFEHPSCTEEHIKELIYKESVKFNPDH
CBC1 and histone phosphorylation in vitro (HT1 + CBC1 + MPK12, 20 mM NaHCO3; FIG. 2A, n>6) [1]: when MPK4 or MPK12 were added to the reaction, we found that the addition of NaHCO3, but not NaCl, inhibited both CBC1 phosphorylation and histone phosphorylation in vitro | HT1 kinase activity, in vitro phosphorylation assay with or without 20 mM NaHCO3 (FIG. 4B, n=3) [1]: HT1 kinase activity was inhibited in response to NaHCO3, only in the presence of MPK12

B7: MPK12-K70R: kinase inactive MPK12 isoform (protein)
chain: B6 chain with K70R
NaHCO3-mediated down-regulation of CBC1 phosphorylation/activity with the protein isoform in the reaction [2]: retained the ability to mediate CO2/bicarbonate-induced CBC1 inhibition
